Reference: US7157570B2, “Human ribonucleotide reductase M2 subunit” (priority 2002, dated 2007)

B1: truncated form of the M2 subunit, lacking the 7 amino acids at the C-terminus (enzyme, human, UniProt P31350 1-382, looked up)
chain: MLSLRVPLAPITDPQQLQLSPLKGLSLVDKENTPPALSGTRVLASKTARRIFQEPTEPKTKAAAPGVEDEPLLRENPRRFVIFPIEYHDIWQMYKKAEASFWTAEEVDLSKDIQHWESLKPEERYFISHVLAFFAASDGIVNENLVERFSQEVQITEARCFYGFQIAMENIHSEMYSLLIDTYIKDPKEREFLFNAIETMPCVKKKADWALRWIGDKEATYGERVVAFAAVEGIFFSGSFASIFWLKKRGLMPGLTFSNELISRDEGLHCDFACLMFKHLVHKPSEERVREIIINAVRIEQEFLTEALPVKLIGMNCTLMKQYIEFVADRLMLELGFSKVFRVENPFDFMENISLEGKTNFFEKRVGEYQRMGVMSSPTENS
notes: domain: truncated form lacking the 7 amino acids at the C-terminus; To build it, delete the last 7 residues (FTLDADF) of RRM2; also called truncated M2

What was measured:
human RR = target: T1, human RR (Homo sapiens, UniProt P23921); test: inhibition of human RR activity by C-terminal RRM2 peptide added to the enzyme in vitro; format: biochemical
T1 sequence (P23921 1-792): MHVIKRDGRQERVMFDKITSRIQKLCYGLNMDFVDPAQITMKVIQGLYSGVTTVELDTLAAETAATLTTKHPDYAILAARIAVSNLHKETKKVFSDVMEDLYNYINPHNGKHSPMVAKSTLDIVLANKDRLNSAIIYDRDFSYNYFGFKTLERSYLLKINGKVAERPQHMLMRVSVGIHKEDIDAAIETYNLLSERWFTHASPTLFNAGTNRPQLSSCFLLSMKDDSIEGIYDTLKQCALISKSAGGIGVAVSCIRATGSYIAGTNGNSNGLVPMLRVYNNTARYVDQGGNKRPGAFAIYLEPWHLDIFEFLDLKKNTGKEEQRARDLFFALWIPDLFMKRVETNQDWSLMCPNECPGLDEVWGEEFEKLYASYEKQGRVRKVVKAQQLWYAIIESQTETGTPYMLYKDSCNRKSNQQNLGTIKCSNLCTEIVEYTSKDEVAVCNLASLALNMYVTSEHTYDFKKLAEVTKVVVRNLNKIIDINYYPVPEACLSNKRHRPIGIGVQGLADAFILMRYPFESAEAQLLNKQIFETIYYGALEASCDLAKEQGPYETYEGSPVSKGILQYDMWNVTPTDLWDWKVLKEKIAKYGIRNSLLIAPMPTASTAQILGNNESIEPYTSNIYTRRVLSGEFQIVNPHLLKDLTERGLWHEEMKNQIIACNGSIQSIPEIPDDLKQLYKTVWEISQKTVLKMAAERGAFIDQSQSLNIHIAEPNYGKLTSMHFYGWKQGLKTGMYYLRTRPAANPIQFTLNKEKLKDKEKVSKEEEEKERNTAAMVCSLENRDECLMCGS
Source text: Other compounds that can be used to inhibit RRM1 and RRM2 or RRM1 and p53R2 interaction include a peptide or polypeptide containing an amino acid sequence at the C-terminus of RRM2. […] It was further observed that a truncated form of the M2 subunit, lacking these 7 amino acids at the C-terminus, fails to form a complex with the corresponding large subunit M1. […] Thus, methods of treating a cell proliferation-associated disorder using the peptide of SEQ ID NO:5 or its functional equivalents are within the scope of the invention. Peptides or polypeptides that are functionally equivalent to SEQ ID NO:5 can be either longer or shorter than SEQ ID NO:5, or contain substitute amino acids within SEQ ID NO:5, as long as they are capable of inhibiting the interaction between RRM1 and RRM2 or RRM1 and p53R2. Such peptides or polypeptides can be generated and used according to the methods described above or any other methods well known in the art.

[1] = target: T2, ribonucleotide reductase M1 subunit (RRM1) (human, UniProt P23921 1-792, limits assumed); test: complex formation assay (method not described)
T2 construct: For the truncation experiment it says only 'the corresponding large subunit M1'; The construct is not described; also called large subunit M1
T2 sequence (looked up): T1 sequence (P23921 1-792)

Molecule | suppression of human RR activity (human RR; added to the enzyme in vitro at ratio 10:1 (peptide:enzyme)) | inhibition of RR activity compared with RR inhibitors hydroxyurea and triapine (human RR; in vitro) | binding result [1]
FTLDADF (synthetically generated peptide) | dramatically suppress | superior | –
B1 | – | – | no binding
